“Also recorded” adds a separate entry of the source.

In experiment [1] the test system is myofibroblasts. Description: myofibroblast apoptosis. The format is cell-based. Conditions: for myofibroblast apoptosis: N=6. The text has this: N=6. *, P<0.05; **, P<0.05.
(§1) Taken together, FMOD not only promotes TGF-β1-induced myofibroblast differentiation and contractility, but also accelerates myofibroblast clearance—resulting in lack of myofibroblast persistence in remodeling stage of FMOD-treated wounds.

The subject of experiment [2] is rat dermal fibroblast (RDF). Description: western blotting and qRT-PCR of α-SMA expression in rat dermal fibroblasts. The format is cell-based. The text has this:
Data are normalized to untreated RDFs at time 0 (dash lines). N=3. *, P<0.05.
(§2) Activity level of myofibroblast is related to the activity of fibromodulin. Fibromodulin can promote myofibroblast differentiation and apoptosis.

Experiment [3] deals with myofibroblast. Description: immunofluorescent (IF) staining for α-SMA stress fibers, myofibroblast differentiation in vitro. The format is cell-based. As to conditions: FMOD combined with TGF-β1.
Description: Formation of stress fibers stained strongly for α-SMA are indicated by yellow arrows. Scale bar=100 μm.
as §2

The subject of experiment [4] is RDF. Description: in vitro collagen gel contraction. The format is cell-based, rat. As to conditions: FMOD alone; N=6.
Description: as §2

Experiment [5] concerns adult rat wounds. Description: PCR array assay of gene expression in adult rat wounds. The format is in vivo. As to conditions: for expression of α-SMA in wounds: FMOD-treated adult rat wounds. The text has this: Gene expression is normalized to unwounded skin (dashed lines). N=9 wounds from 9 animals. **, P<0.05.
Gene expression is normalized to unwounded skin (dashed lines). N=9 wounds from 9 animals. **, P<0.05

The subject of experiment [6] is adult rat wounds. Description: α-SMA-positive myofibroblasts in wounds. As to conditions: FMOD-treated wounds; day 14 post injury. The format is in vivo.
Description: as §1

Experiment [7] deals with adult rat skin wounds. Description: scar formation and tensile strength of adult rat skin wounds. The format is in vivo.
Description: as §1

“TGF-β1: transforming growth factor (TGF)-β1, myofibroblast differentiation inducing agent”: the “interleukin (IL)-1β-mediated apoptosis in myofibroblasts” value in experiment [1] (effect of TGF-β1) is listed as “completely blocked”.

B1: FMOD: fibromodulin protein; an example is SEQ ID NO:1 (Genebank NM 002023) (protein, listed as Homo sapiens)
chain: WTSLLLLAGLFSLSQAQYEDDPHWWFHYLRSQQSTYYDPYDPYPYETYEPYPYGVDEGPAYTYGSPSPPDPRDCPQECDCPPNFPTAMYCDNRNLKYLPFVPSRMKYVYFQNNQITSIQEGVFDNATGLLWIALHGNQITSDKVGRKVFSKLRHLERLYLDHNNLTRMPGPLPRSLRELHLDHNQISRVPNNALEGLENLTALYLQHNEIQEVGSSMRGLRSLILLDLSYNHLRKVPDGLPSALEQLYMEHNNVYTVPDSYFRGAPKLLYVRLSHNSLTNNGLASNTFNSSSLLELDLSYNQLQKIPPVNTNLENLYLQGNRINEFSISSFCTVVDVVNFSKLQVLRLDGNEIKRSAMPADAPLCLRLASLIEI
Regarding B1, in experiment [2] (FMOD alone, western blotting and qRT-PCR, N=3), the “α-smooth muscle actin (α-SMA) expression” value is reported as “no significant effect”. Besides, the “TGF-β1-induced α-SMA expression” value is recorded as “significantly enhances” in experiment [2] (FMOD in the presence of TGF-β1, N=3) and “significantly promoted” in experiment [2] (FMOD in the presence of TGF-β1, N=3, listed as Fibromodulin). Further, in experiment [3], the “myofibroblast differentiation and contractility in vitro” value is on record as “significantly enhanced”. For the same molecule, in experiment [4], the “RDF contraction in collagen gel” value is on record as “minimal effects”. Also, the “expression of α-SMA in wounds” value in experiment [5] (early 3-day time-point) is “significantly upregulated”; in experiment [5] (late 7- and 14-day time-points), “reduced”. Besides, the IL-1β expression entry in experiment [5] (day 3 and 7 adult rat wounds) is reported as “significantly stimulated”. In experiment [5] (day 3 and 7 adult rat wounds, PCR array), the IL-10 expression entry is “significantly stimulated”. Also, the myofibroblast apoptosis entry in experiment [1] (FMOD alone) is “promoted myofibroblast apoptosis as effectively as IL-1β; also recorded: induces myofibroblast apoptosis as effectively as IL-10”; in experiment [1] (in the presence of TGF-β1), “promoted apoptosis even in the presence of TGF-1β”. For the same molecule, the α-SMA-positive myofibroblasts result in experiment [6] is recorded as “diminished; also recorded: decreased”. Moreover, the collagen architecture result in experiment [7] (adult rat primary closure wounds) was “more organized collagen architecture”. Moreover, the scar size result in experiment [7] (adult rat skin wounds, doses □ 0.4 mg/ml, day 14 post injury, compared to control) was “significant smaller scar; also recorded: significantly reduces”. Also, in experiment [7] (adult rat wounds), the tensile strength entry is on record as “stronger tensile strength; also recorded: increasing tensile strength in a dose dependent manner”.

The record behind these values is patent US12144843B2, “Methods and compositions for modulating myofibroblast activities” (THE REGENTS OF THE UNIVERSITY OF CALIFORNIA, priority 2011, dated 2024).
